The record followed here is patent US20190315837A1.

For this experiment, the target named is His-tagged human Her2/Neu protein (Her2-His) (human) (UniProt P04626). The experiment is described as follows: Octet (BLI), Her2-His on penta-His biosensor, antibody in solution.

What is called Kd is the constant that tells how readily two partners part at equilibrium. A high value points to a looser complex. In general, koff refers to a measure of how fast the partners let go of each other. Low values mean a long-lived complex, high ones a short-lived complex. As a reminder, the kon is the second-order rate constant of association. A high value points to faster complex formation. human IgG1 control (antibody) yielded an equilibrium dissociation constant (Kd) of under 1 pM, a koff of under 1e-07 s⁻¹ and an association rate constant (kon) of 1.04e+06 M⁻¹ s⁻¹.
